2 molecules from US20060058504A1, “Peptides capable of inducing attraction to the axonal growth and their use for treating neurodegenerative diseases” (Centre National de la Recherche Scientific (CNRS), priority 2002, published 2006) can be followed below.

Like-named read-outs stand apart in the source and are kept apart here.

Series [1] concerns the molecule itself. Nature of the series: two-color FACS bead aggregation, mutant to mutant (FIG. 2B).
Description: Excess unbound protein was removed by washing with PBS/5% FCS. […] Samples were diluted 1:5000 into ice cold PBS and the proportion of 2 colour aggregates was assessed using a fluorescence activated cell sorter (Becton Dickenson FACSort). […] Every mutant protein was assayed at least 3 separate times and standardised to a wild-type control conducted in parallel.
The target in series [2] is T1, full-length wild-type human L1 expressed in COS7 cells (human, UniProt P32004 20-1257).
T1 construct: whole, on cells; also called wild-type L1; transmembrane L1
Nature of the series: immunofluorescence of L1Fc on COS cells expressing wild-type L1.
Description: Briefly, COS-7 cells were transiently transfected with 10 μg DNA per 150 mm culture dish, the soluble Fc chimeric protein was allowed to accumulate in the media for 6 days and was recovered and purified by protein A-Sepharose affinity chromatography. In the binding experiments, L1Fcs were cross-linked to anti-human Fc antibodies (50 μg/ml, Jackson Immunoresearch) for 1 hr at 37° C. […] Following incubation, the cells were fixed with 4% PFA, and processed for double-immunofluorescence detection. NP-1 was detected using a mouse anti-c myc antibody (clone 9E10, Sigma) and L1 using a rat monoclonal anti-L1 antibody. […] After secondary antibody incubation, the cells were washed with PBS and mounted in Mowiol (Calbiochem).

Series [3] relates to cortical axons repelled by Sema3A secreted from the ventral spinal cord. Nature of the series: Co-culture of cortical slices and ventral spinal cord explants (axon guidance response to Sema3A). Type of series: cell-based, mice. How it is done:
Blocks of cortex were dissected from P0 (postnatal day 0) to P2 mice and cut into 250 μm thick slices with a McIlwain tissue chopper. The ventral part of the cervical spinal cord was dissected and cut into 250 μm thick slices. Co-culture of cortical slices and ventral spinal cord explants were performed in a three-dimensional plasma clot, as described previously (Castellani et al., 2000). Cortical slices were oriented in the plasma clot as indicated in FIG. 1B to give to axons equivalent chances to be deflected away or towards the spinal cord explant. Purified wild-type or mutant L1Fc chimeras were added to the culture medium (3 μg/ml). Inhibitors of the guanylyl cyclase (ODQ, 10^−5 M, Sigma) and NOS (7NI, […], Sigma) were added to the culture medium, either alone or with wild-type L1Fc (3 μg/ml). After one or two days in vitro (DIV), the cultures were fixed with 4% paraformaldehyde (PFA) and analyzed by phase contrast microscopy (Axiovert 35-M, Zeiss). A qualitative guidance index was attributed to the co-cultures, to assess the degree of repulsive (negative values) or attractive (positive values) effects (Castellani et al., 2000). The index ranged from −2 (when most fibers grew away from the spinal cord explant) to +2 (when most fibers grew towards the explant), with intermediate situations (index of −1 and +1 for moderate guidance effects). An index of zero was attributed to the cultures showing no preferential growth. Quantitative analysis of axon length and number of axons growing from cortical slices was performed as described previously (Castellani et al., 2000). A proximal and a distal region, each of them covering a 600 μm-piece of cortical tissue were determined for each culture. All fibers extending from these two regions were counted and the length of the three longest fibers was measured, using computer analysis software (Visiolab 2000, Biocom). Immunofluorescence labeling of axons was performed using the mouse anti-phosphorylated neurofilament antibody SMI31 (Stemberger and Meyer Inc.), and Texas red-conjugated secondary anti-mouse antibody (see result obtained for number of axons and axonal length in the following tables 1 and 2).
It has been previously developed an assay system using explants of ventral spinal cord co-cultured with cortical axons in order to determine the factors involved in axonal repulsion and attraction (Castellani et al., 2000). Using this system we have shown that Sema3A secreted from the ventral spinal cord repels cortical axons. In the presence of soluble wild-type L1Fc chimeric protein however, repulsion is switched to attraction (Castellani et al., […]). In the present study, we aimed to identify the L1 interactions underlying the switching process. As Ig domains have been implicated in binding of Ig CAMs to many of their ligands (Brümmendorf and Rathjen, 1996) we hypothesized that they would also be required for L1 Fc-mediated switching. […] L1 Fc chimeras containing pathological missense mutations affecting specific Ig domains (De Angelis et al., 1999 and FIGS. 1A, 1B) were assessed for their ability to reverse Sema3A repulsion to attraction.

For series [4], the target named is Plexin-A1 (Homo sapiens, UniProt Q9UIW2). Put plainly: Binding of L1Fc to Plexin-A1 expressing COS7 cells (immunofluorescence).
Plexin-A1, sequence (Q9UIW2 27-1896, species assumed): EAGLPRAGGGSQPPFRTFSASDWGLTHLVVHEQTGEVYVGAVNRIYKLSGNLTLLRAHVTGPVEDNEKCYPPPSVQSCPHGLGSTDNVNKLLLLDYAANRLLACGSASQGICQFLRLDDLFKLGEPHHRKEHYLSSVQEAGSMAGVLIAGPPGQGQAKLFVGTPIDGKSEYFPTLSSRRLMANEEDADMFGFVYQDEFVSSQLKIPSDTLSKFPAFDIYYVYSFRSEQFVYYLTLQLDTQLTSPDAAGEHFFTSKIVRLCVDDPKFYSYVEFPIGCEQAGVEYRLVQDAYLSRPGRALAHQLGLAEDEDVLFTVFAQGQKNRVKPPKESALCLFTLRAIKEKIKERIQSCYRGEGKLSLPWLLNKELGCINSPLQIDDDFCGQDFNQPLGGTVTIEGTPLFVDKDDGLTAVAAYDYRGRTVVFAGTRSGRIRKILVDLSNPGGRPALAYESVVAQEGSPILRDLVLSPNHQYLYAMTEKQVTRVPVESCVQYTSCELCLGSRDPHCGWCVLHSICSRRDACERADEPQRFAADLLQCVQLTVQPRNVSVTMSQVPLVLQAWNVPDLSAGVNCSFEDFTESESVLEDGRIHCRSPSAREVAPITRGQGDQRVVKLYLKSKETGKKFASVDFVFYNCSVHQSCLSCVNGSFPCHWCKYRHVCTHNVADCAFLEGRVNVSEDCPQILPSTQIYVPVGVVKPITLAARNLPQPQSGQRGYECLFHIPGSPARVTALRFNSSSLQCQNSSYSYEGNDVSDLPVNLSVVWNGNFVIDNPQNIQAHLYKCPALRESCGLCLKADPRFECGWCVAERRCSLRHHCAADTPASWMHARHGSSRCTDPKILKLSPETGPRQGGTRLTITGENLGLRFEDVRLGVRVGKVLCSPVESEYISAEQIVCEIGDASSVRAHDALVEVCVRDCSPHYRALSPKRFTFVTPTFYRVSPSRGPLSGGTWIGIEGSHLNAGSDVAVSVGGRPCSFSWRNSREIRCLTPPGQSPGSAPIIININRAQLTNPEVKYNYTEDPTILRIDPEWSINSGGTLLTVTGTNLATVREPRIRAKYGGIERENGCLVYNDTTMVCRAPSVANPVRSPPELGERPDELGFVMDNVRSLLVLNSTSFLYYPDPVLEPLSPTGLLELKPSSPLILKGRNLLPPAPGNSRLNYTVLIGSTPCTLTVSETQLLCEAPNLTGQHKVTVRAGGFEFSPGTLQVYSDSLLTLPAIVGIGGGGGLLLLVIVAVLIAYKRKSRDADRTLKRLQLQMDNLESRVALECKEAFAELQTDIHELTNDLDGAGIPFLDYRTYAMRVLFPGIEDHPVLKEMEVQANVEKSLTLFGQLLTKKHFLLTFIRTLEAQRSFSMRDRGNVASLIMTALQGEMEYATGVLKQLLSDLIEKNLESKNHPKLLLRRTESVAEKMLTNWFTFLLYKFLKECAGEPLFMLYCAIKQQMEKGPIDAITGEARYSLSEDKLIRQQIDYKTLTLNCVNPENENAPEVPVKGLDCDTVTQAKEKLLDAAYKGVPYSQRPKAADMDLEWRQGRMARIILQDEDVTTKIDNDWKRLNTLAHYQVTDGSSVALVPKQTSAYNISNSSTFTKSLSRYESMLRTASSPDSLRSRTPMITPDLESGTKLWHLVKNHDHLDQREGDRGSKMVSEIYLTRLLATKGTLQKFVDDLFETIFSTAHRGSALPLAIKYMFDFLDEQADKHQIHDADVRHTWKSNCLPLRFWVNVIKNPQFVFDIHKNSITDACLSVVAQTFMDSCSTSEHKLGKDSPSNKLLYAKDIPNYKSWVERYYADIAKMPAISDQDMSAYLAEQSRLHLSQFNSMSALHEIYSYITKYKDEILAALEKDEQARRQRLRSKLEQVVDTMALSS
Series [5] has as its target T2, full length human L1 (Homo sapiens, UniProt P32004).
T2 construct: transiently transfected with expression vectors encoding full length human L1; expressed in transfected cells; host or cells: COS7
Nature of the series: Binding of L1Fc chimeras to COS cells expressing wild-type L1 (immunofluorescence). How it is done: The mutant L1Fc chimeras were produced and purified as described previously (De Angelis et al., 1999). Briefly, COS-7 cells were transiently transfected with 10 μg DNA per 150 mm culture dish, the soluble Fc chimeric protein was allowed to accumulate in the media for 6 days and was recovered and purified by protein A-Sepharose affinity chromatography. In the binding experiments, L1Fcs were cross-linked to anti-human Fc antibodies (50 μg/ml, Jackson Immunoresearch) for 1 hr at 37° C. Binding detection to NP-1 requested concentrations of L1Fcs 10 folds higher than L1. Antibody conjugated L1-Fc protein was then incubated with monolayers of COS7 cells transiently transfected with expression vectors encoding full length human L1 or myc-tagged NP-1 where the cytoplasmic domain is deleted (gift of J. Raper, 2000 and Renzi et al., 1999). Following incubation, the cells were fixed with 4% PFA, and processed for double-immunofluorescence detection. NP-1 was detected using a mouse anti-c myc antibody (clone 9E10, Sigma) and L1 using a rat monoclonal anti-L1 antibody. Secondary antibody anti-c-myc (Texas-red conjugated anti-mouse antibodies) was used to detect NP-1, anti-L1 (Texas red conjugated anti-rat antibodies) to detect L1, and anti-Fc (FITC conjugated anti-rabbit antibodies) to detect bound L1Fc chimeras. After secondary antibody incubation, the cells were washed with PBS and mounted in Mowiol (Calbiochem).
Thus, Ig CAMs F3 and TAG-1 (the rodent homologue of axonin-1) ate unlikely to be axonal receptors for L1Fc in the reversion process. […] In the present study however, mutated L1Fc proteins were required to interact with wild-type L1 expressed on growth cones. To formally exclude a role for homophilic binding of L1 in the initiation of the reversion process, it was therefore necessary to examine whether homophilic binding of the mutated L1Fc chimeras to wild-type L1 was also disrupted. Mutated L1Fcs were therefore incubated with COS7 cells transfected with full-length wild-type L1 cDNA and binding was assessed by immunofluorescence. In parallel, homophilic binding of mutant/mutant and mutant/wild-type L1Fcs was compared in a two-color FACS aggregation assay, allowing a quantitative assessment to be made (see Methods). […] Similarly, in the two color FACS assay homophilic binding was restored to 74.4% and 90.5% of wild-type levels for A426D and H210Q respectively (FIG. 2B). […] This mutation however still promoted the L1 Fc induced switching of Sema3A repulsion to attraction in the co-culture assay. Thus, the ability of L1Fc to switch Sema3A repulsion is not dependent on homophilic binding. Consequently, the trans interaction of L1Fc with L1 in the receptor complex is not required for the change in growth cone responsiveness to Sema3A.

Setting [6] is: Ctx/vSC co-culture, growth away from spinal cord explant, L1Fc 3 μg/ml, ODQ 10^−5 M.
Where [7] appears, read: Ctx/vSC co-culture, growth towards spinal cord explant, L1Fc 3 μg/ml, ODQ 10^−5 M.

T2 sequence (P32004 20-1257): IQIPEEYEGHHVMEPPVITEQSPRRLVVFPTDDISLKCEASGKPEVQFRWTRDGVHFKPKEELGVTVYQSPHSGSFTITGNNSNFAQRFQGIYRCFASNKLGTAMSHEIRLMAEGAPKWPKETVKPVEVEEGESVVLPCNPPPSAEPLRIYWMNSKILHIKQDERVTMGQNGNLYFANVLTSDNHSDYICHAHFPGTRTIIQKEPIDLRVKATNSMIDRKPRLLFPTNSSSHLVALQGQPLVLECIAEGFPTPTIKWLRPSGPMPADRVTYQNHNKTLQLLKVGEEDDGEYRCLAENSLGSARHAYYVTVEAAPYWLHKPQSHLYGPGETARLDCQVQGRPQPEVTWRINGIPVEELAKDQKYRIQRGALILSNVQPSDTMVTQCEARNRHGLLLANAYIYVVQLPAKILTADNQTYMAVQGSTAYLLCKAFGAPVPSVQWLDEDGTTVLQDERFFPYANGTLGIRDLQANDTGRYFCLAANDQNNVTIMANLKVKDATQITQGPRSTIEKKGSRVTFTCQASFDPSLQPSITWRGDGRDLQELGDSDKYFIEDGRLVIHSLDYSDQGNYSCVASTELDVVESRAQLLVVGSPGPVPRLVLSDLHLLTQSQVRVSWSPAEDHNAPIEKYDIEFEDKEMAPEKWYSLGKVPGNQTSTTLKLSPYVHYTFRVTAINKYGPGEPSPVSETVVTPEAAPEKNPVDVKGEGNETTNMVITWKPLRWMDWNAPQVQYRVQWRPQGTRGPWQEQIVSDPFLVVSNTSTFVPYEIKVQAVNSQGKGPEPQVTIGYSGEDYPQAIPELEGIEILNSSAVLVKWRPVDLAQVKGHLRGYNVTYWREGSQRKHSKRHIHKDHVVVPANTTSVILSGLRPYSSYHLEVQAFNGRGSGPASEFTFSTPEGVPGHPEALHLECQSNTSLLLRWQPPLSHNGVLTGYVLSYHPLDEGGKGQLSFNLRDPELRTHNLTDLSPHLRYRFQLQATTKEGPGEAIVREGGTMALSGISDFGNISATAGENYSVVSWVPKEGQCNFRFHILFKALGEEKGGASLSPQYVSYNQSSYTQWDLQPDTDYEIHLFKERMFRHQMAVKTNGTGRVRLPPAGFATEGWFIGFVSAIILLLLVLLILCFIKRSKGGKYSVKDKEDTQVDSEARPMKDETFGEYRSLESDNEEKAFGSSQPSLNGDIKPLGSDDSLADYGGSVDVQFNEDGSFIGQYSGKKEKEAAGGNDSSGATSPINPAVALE

B1: G121S mutant L1Fc chimera (Fc fusion, UniProt P32004 20-1120, looked up)
chain: IQIPEEYEGHHVMEPPVITEQSPRRLVVFPTDDISLKCEASGKPEVQFRWTRDGVHFKPKEELGVTVYQSPHSGSFTITGNNSNFAQRFQGIYRCFASNKLSTAMSHEIRLMAEGAPKWPKETVKPVEVEEGESVVLPCNPPPSAEPLRIYWMNSKILHIKQDERVTMGQNGNLYFANVLTSDNHSDYICHAHFPGTRTIIQKEPIDLRVKATNSMIDRKPRLLFPTNSSSHLVALQGQPLVLECIAEGFPTPTIKWLRPSGPMPADRVTYQNHNKTLQLLKVGEEDDGEYRCLAENSLGSARHAYYVTVEAAPYWLHKPQSHLYGPGETARLDCQVQGRPQPEVTWRINGIPVEELAKDQKYRIQRGALILSNVQPSDTMVTQCEARNRHGLLLANAYIYVVQLPAKILTADNQTYMAVQGSTAYLLCKAFGAPVPSVQWLDEDGTTVLQDERFFPYANGTLGIRDLQANDTGRYFCLAANDQNNVTIMANLKVKDATQITQGPRSTIEKKGSRVTFTCQASFDPSLQPSITWRGDGRDLQELGDSDKYFIEDGRLVIHSLDYSDQGNYSCVASTELDVVESRAQLLVVGSPGPVPRLVLSDLHLLTQSQVRVSWSPAEDHNAPIEKYDIEFEDKEMAPEKWYSLGKVPGNQTSTTLKLSPYVHYTFRVTAINKYGPGEPSPVSETVVTPEAAPEKNPVDVKGEGNETTNMVITWKPLRWMDWNAPQVQYRVQWRPQGTRGPWQEQIVSDPFLVVSNTSTFVPYEIKVQAVNSQGKGPEPQVTIGYSGEDYPQAIPELEGIEILNSSAVLVKWRPVDLAQVKGHLRGYNVTYWREGSQRKHSKRHIHKDHVVVPANTTSVILSGLRPYSSYHLEVQAFNGRGSGPASEFTFSTPEGVPGHPEALHLECQSNTSLLLRWQPPLSHNGVLTGYVLSYHPLDEGGKGQLSFNLRDPELRTHNLTDLSPHLRYRFQLQATTKEGPGEAIVREGGTMALSGISDFGNISATAGENYSVVSWVPKEGQCNFRFHILFKALGEEKGGASLSPQYVSYNQSSYTQWDLQPDTDYEIHLFKERMFRHQMAVKTNGTGRVRLPPAGFATE
notes: also called G121S-L1Fc; not shown: immunoglobulin Fc, human
As to B1, the binding result in series [1] is listed as “binds”; in series [2], “no binding”.

B2: L1Fc: soluble wild-type L1Fc chimeric protein (protein)
chain: IQIPEEYEGHHVMEPPVITEQSPRRLVVFPTDDISLKCEASGKPEVQFRWTRDGVHFKPKEELGVTVYQSPHSGSFTITGNNSNFAQRFQGIYRCFASNKLGTAMSHEIRLMAEGAPKWPKETVKPVEVEEGESVVLPCNPPPSAEPLRIYWMNSKILHIKQDERVTMGQNGNLYFANVLTSDNHSDYICHAHFPGTRTIIQKEPIDLRVKATNSMIDRKPRLLFPTNSSSHLVALQGQPLVLECIAEGFPTPTIKWLRPSGPMPADRVTYQNHNKTLQLLKVGEEDDGEYRCLAENSLGSARHAYYVTVEAAPYWLHKPQSHLYGPGETARLDCQVQGRPQPEVTWRINGIPVEELAKDQKYRIQRGALILSNVQPSDTMVTQCEARNRHGLLLANAYIYVVQLPAKILTADNQTYMAVQGSTAYLLCKAFGAPVPSVQWLDEDGTTVLQDERFFPYANGTLGIRDLQANDTGRYFCLAANDQNNVTIMANLKVKDATQITQGPRSTIEKKGSRVTFTCQASFDPSLQPSITWRGDGRDLQELGDSDKYFIEDGRLVIHSLDYSDQGNYSCVASTELDVVESRAQLLVVGSPGPVPRLVLSDLHLLTQSQVRVSWSPAEDHNAPIEKYDIEFEDKEMAPEKWYSLGKVPGNQTSTTLKLSPYVHYTFRVTAINKYGPGEPSPVSETVVTPEAAPEKNPVDVKGEGNETTNMVITWKPLRWMDWNAPQVQYRVQWRPQGTRGPWQEQIVSDPFLVVSNTSTFVPYEIKVQAVNSQGKGPEPQVTIGYSGEDYPQAIPELEGIEILNSSAVLVKWRPVDLAQVKGHLRGYNVTYWREGSQRKHSKRHIHKDHVVVPANTTSVILSGLRPYSSYHLEVQAFNGRGSGPASEFTFSTPEGVPGHPEALHLECQSNTSLLLRWQPPLSHNGVLTGYVLSYHPLDEGGKGQLSFNLRDPELRTHNLTDLSPHLRYRFQLQATTKEGPGEAIVREGGTMALSGISDFGNISATAGENYSVVSWVPKEGQCNFRFHILFKALGEEKGGASLSPQYVSYNQSSYTQWDLQPDTDYEIHLFKERMFRHQMAVKTNGTGRVRLPPAGFATE
modifications: left off: a dimerising Fc or GST
notes: soluble wild-type L1Fc chimeric protein
In the case of B2, in series [3] (setting [6]), the “Axonal length, Away” value is 198.6 +/− 4 and the “Number of axons, Away” value is 5.8 +/− 0.7. In series [3] (setting [7]), the “Axonal length, Towards” value was 346.8 +/− 5, * and the “Number of axons, Towards” value is 22.6 +/− 1.6, *. In series [3] (chimera 3 μg/ml in culture medium), the “switching of Sema3A repulsion to attraction by L1Fc chimera” value is recorded as “switched repulsion to attraction”. In series [3] (qualitative index from −2 (repulsion) to +2 (attraction), L1Fc chimeras 3 μg/ml, ODQ 10^−5M), the guidance index result was “+1.5”. In addition, in series [4], the “binding to Plexin-A1 expressing cells” value is on record as “no binding to Plexin-A1 expressing cells”. Moreover, in series [4] (listed as Wild-type L1 Fc), the “binding to Plexin-A1 expressing cells” value is given as “not Plexin-A 1-expressing cells”. Also, the “binding to wild-type L1 expressed in COS cells” value in series [5] is listed as “clear binding”. In addition, the “binding to wild-type L1 expressed in COS cells” value in series [5] (listed as Wild-type L1 Fc) was “bound to L1”.
